Test results reported in patent US20220204630A1 (SUNSHINE LAKE PHARMA, published 2022).
Substitutions are numbered along the chain they refer to. Blank lines part the entries; values can stand above or below the binder they belong to.

Tests used:
[1] = biological target: T1, TrkA protein on HEK-293T-TrkA cells or NIH-3T3-TrkA cells (human, UniProt P04629 33-796); assay: flow cytometry on HEK-293T-TrKA cells
T1 construct: whole, on cells; Printed only as TrkA for these cells; also called TrkA protein on the membrane of NIH-3T3-TrkA cells
Text: (§1) In FIG. 7, the EC₅₀ (half-binding concentration) value reflects the affinity of the antibody. The smaller the EC₅₀ value, the higher the affinity of the antibody.

[2] = biological target: T2, TRKA protein with a histidine tag (human, UniProt P04629 33-423, limits assumed); assay: BLI (Fortebio Octet RED96), His-tagged TRKA on Ni-NTA sensor, antibody 80-2.93 nM
T2 construct: it is put last here only for order; also called TRKA (50 µg/ml, 75 kDa, provided by HEC Labs); not shown: histidine tag
Procedure: They were added to each well of the sample plate. […] The KD value is the equilibrium dissociation constant between the antibody and its antigen, and the KD value is inversely proportional to the affinity. The KD value is related to the antibody concentration (the amount of antibody required for a particular experiment). The lower the KD value (the lower the concentration), the higher the affinity of the antibody. High-affinity antibodies are generally considered to be in the low nanomolar range (10⁻⁹).

[3] = biological target: T1, TrkA protein on HEK-293T-TrkA cells or …; assay: flow cytometry competition: antibody titrated against biotinylated NGF binding to HEK-293T-TrkA cells, % parent
[4] = biological target: T1, TrkA protein on HEK-293T-TrkA cells or …; assay: flow cytometry, antibody titrated on HEK-293T-TrKA cells, Parent %
Text: as §1

[5] = biological target: T3, TrKA receptor protein coated in ELISA (Examples 11 and 16) (human, UniProt P04629 33-423, limits assumed); assay: competition ELISA: antibody titrated against biotinylated NGF binding to TrkA, OD450
T3 construct: also called Human-TrKA

[6] = biological target: T3, TrKA receptor protein coated in ELISA …; assay: ELISA plateau, antibody up to 20 µg/mL on TrKA
Procedure: The TrkA receptor family belongs to receptor tyrosine kinases (RTKs), including TrkA, TrkB, and TrkC, which have high homology. TrkA is a receptor tyrosine kinase of nerve growth factor (NGF) that selectively binds to NGF and is a functional receptor for NGF. In addition to the high-affinity receptor TrkA, NGF can also bind to its low-affinity receptor p75. In the test, the binding of test antibodies at different concentrations (20 μg/mL, 10 μg/mL, 5 μg/mL, 2.5 μg/mL, 1.25 μg/mL, 0.625 μg/mL, 0.313 μg/mL, 0.156 μg/mL, 0.078 μg/mL, 0.039 μg/mL, 0.019 μg/mL) to TrKA, TrKB, TrKC, and P75 respectively was detected by the ELISA method, and the specificity of the test antibody binding to the target TrKA was evaluated. In the FIG. 8, at a certain antibody concentration, the OD₄₅₀ value reflects the binding strength of the antibody to the protein. The larger the reading, the stronger the binding of the antibody to the protein. […] It can be seen that the specificity of the binding of the test antibodies to the target TrKA is very good.

Mouse-TrKA protein = biological target: T4, Mouse-TrKA protein (mouse, UniProt Q3UFB7 34-420, limits assumed); assay: ELISA, hybridoma supernatant on Mouse-TrKA
T4 construct: also called Mouse-TrKA receptor
Text: The binding of monoclonal antibodies produced by the supernatant of each positive clone to the Mouse-TrKA receptor was detected by ELISA method, and the human-mouse cross reaction of positive clones producing monoclonal antibodies was detected. In FIG. 3, the OD₄₅₀ value reflects the strength of the binding of the antibody to the protein. The larger the reading, the stronger the binding of the antibody to the protein. […] It can be seen that clones 23E12, 21E5, 15D4, and 27H3 can produce monoclonal antibodies that bind to both Human-TrKA and Mouse-TrKA, and there is a human-mouse cross reaction.

[7] = biological target: T1, TrkA protein on HEK-293T-TrkA cells or …; assay: cell-based or functional assay

T2 sequence (P04629 33-423 limits assumed): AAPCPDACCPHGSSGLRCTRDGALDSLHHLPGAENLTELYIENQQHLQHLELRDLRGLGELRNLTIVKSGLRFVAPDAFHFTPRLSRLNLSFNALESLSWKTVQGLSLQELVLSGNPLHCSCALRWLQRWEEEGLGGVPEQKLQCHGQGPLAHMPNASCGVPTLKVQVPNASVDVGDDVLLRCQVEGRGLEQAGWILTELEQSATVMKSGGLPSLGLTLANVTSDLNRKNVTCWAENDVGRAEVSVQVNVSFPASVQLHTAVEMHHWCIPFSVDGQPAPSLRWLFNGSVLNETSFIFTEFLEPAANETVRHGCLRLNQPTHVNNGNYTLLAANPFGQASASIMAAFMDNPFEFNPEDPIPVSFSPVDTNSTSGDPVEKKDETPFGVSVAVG
T3 sequence (P04629 33-423 limits assumed): as above
T4 sequence (Q3UFB7 34-420 limits assumed): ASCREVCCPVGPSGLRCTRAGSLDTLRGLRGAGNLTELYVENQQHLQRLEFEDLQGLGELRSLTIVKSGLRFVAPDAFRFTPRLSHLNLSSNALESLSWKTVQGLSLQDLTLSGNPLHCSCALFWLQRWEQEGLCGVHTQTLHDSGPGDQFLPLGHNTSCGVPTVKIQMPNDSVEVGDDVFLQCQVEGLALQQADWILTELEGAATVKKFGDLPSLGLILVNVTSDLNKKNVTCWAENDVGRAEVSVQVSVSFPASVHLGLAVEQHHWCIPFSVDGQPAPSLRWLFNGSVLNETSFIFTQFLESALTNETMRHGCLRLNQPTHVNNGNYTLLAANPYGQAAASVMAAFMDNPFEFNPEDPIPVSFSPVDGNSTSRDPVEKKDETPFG
T1 sequence (P04629 33-796): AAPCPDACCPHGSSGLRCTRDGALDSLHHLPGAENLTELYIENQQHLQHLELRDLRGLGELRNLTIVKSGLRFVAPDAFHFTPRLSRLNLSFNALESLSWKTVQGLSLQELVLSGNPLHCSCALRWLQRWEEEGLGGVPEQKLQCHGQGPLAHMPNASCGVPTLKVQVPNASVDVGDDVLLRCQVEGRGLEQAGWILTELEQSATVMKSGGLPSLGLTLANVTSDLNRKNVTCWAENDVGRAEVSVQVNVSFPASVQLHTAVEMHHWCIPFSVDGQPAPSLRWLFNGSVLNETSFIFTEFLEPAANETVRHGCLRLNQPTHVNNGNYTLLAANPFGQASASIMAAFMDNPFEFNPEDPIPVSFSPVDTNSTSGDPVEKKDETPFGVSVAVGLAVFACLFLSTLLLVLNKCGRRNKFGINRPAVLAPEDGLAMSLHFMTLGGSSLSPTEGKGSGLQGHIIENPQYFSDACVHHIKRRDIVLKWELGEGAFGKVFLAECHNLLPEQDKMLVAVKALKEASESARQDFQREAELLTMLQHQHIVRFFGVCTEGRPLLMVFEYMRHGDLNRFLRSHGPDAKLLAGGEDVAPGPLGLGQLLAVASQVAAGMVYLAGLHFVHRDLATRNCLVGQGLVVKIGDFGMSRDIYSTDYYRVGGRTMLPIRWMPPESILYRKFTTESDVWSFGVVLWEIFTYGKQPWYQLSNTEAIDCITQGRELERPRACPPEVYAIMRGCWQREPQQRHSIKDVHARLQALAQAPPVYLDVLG

- EC50 [1]: < 1.5 µg/mL
- Kd [2]: 0.0162 nM
- koff [2]: 3.6e-06 s⁻¹
- kon [2]: 222000 M⁻¹ s⁻¹
- IC50 [3]: 4.8 µg/mL
- EC50 [4]: 0.312 µg/mL
- IC50 [5]: 1.06 µg/mL
- OD450 [6]: ~3 OD450
B1: 2A5 chimeric antibody (antibody, human IgG4 S228P, kappa, F234A L235A, V domains shown)
VH: EVQLQQSGPELVKPGASMKISCKASGYSFTGYTMNWVKQSHGKNLEWIGLINPYNGGTNYNQKFKGKATLTVDKSSSTAYMELLSLTSEDSAVYYCAFSYYGSRGFYFDYWGQGTTLTVSS
VL: QIVLTQSPALMSASPGEKVTMTCSATSSVSYIYWYQQKPRSSPKPWIYLTSNLASGVPARFSGSGSGTSYSLTISSMEAEDAATYYCQQWSSNPPTFGGGTKLEIKR
notes: expressed in CHO cells

- binding result (Mouse-TrKA protein): no binding
B2: mouse monoclonal antibody produced by hybridoma clone 2A5 (antibody, V domains shown)
VH: B1 VH
VL: QIVLTQSPALMSASPGEKVTMTCSATSSVSYIYWYQQKPRSSPKPWIYLTSNLASGVPARFSGSGSGTSYSLTISSMEAEDAATYYCQQWSSNPPTFGGGTKLEIK
notes: also called 2A5 (positive clone supernatant)

- binding result (Mouse-TrKA protein): no binding
B3: mouse monoclonal antibody produced by hybridoma clone 22D12 (antibody, V domains shown)
VH: EVQLQQSGPELVKPGASMKISCKASGYSITGYTMNWVKQSHGKNLEWIGLVNPYNGGTSYNQKFKGKATLTVDKSSSTAYMELLSLKSEDSAVYYCAISRYGSESWYFDVWGAGTTVTVSS
VL: B2 VL with T5S, L10I, M11L, S24R, I32M, R40G, L49A, S76R, M77V, I105K
notes: also called 22D12 (positive clone supernatant)

- EC50 [1]: < 1.5 µg/mL
- Kd [2]: 1.68 nM
- koff [2]: 0.000234 s⁻¹
- kon [2]: 139000 M⁻¹ s⁻¹
- IC50; p-TrkA level by AlphaLISA in NGF-stimulated NIH3T3-TrkA stable cell line [7]: 0.129 µg/mL
- IC50 [3]: 2.04 µg/mL
- EC50 [4]: 0.211 µg/mL
- IC50 [5]: 0.551 µg/mL
- OD450 [6]: ~3 OD450
B4: 4H4 chimeric antibody (antibody, human IgG4 S228P, kappa, F234A L235A, V domains shown)
VH: EVQLQQSGPELVKPGASMKISCKASGYSFTGYTMNWVKQSHGKNLEWIGLINPYNGGTRYNQKFKGKATLTVDKSSSTAYMELLSLTSEDSAVYYCASSSYRNDGNWYFDVWGAGTTVTVSS
VL: DIVMTQSPAIMSASPGEKVTMTCSASSSVSYMHWYQQKSGTSPKRWIYDTSKLASGVPARFSGSGSGTSYSLTISSMETEDAATYYCQQWSSNPPTFGGGTKLELKR
notes: expressed in CHO cells

- binding result (Mouse-TrKA protein): no binding
B5: mouse monoclonal antibody produced by hybridoma clone 4H4 (antibody, V domains shown)
VH: B4 VH
VL: DIVMTQSPAIMSASPGEKVTMTCSASSSVSYMHWYQQKSGTSPKRWIYDTSKLASGVPARFSGSGSGTSYSLTISSMETEDAATYYCQQWSSNPPTFGGGTKLELK
notes: also called 4H4 (positive clone supernatant)

- EC50 [1]: < 1.5 µg/mL
- Kd [2]: 0.115 nM
- koff [2]: 6.33e-05 s⁻¹
- kon [2]: 551000 M⁻¹ s⁻¹
- IC50; p-TrkA level by AlphaLISA in NGF-stimulated NIH3T3-TrkA stable cell line [7]: 0.11 µg/mL
- IC50 [3]: 0.822 µg/mL
- EC50 [4]: 0.136 µg/mL
- IC50 [5]: 0.31 µg/mL
- OD450 [6]: ~3 OD450
B6: 2008 chimeric antibody (antibody, human IgG4 S228P, kappa, F234A L235A, V domains shown)
VH: EVLLQQSGPELVKPGASMKISCKASVYSFTAYTMNWVKQSHGKNLEWIGLINPHNGGTRYNQKFKGKATLTLDKSSSTAYMDLLSLTSEDSAVYYCAISRYGSSSFYFDVWGAGTTVAVSS
VL: QIVLSQSPAILSASPGEKVTMTCRASSSISYMHWYQQKPGSSPKPWISATSNLASGVPARFSGSGSGTSYSLTISGVEAEDAATYYCQQWSSNPPTFGGGTNLEIKR
notes: also called 20C8

- binding result (Mouse-TrKA protein): no binding
B7: mouse monoclonal antibody produced by hybridoma clone 2008 (antibody, V domains shown)
VH: B6 VH
VL: QIVLSQSPAILSASPGEKVTMTCRASSSISYMHWYQQKPGSSPKPWISATSNLASGVPARFSGSGSGTSYSLTISGVEAEDAATYYCQQWSSNPPTFGGGTNLEIK

- OD450 (Mouse-TrKA protein): ~3.5 OD450
B8: mouse monoclonal antibody produced by hybridoma clone 27H3 (antibody, V domains shown)
VH: QVQLQQSGAELMKPGASVKISCKTTGYRFSSYWIEWVKQRPGHGLEWLGEILPGRGIINYNENFRGKATFTADTSSNTAYVQLSSLTSEDSAVYFCARTDPPYFGVWGAGTTVTVSS
VL: QAVVTQESALTTSPGETVTLTCRSSTGAVTISNYANWVQEKPDHLFTGLIGGTNNRPPGVPARFSGSLIGDKAALTITGAQTEDEAIYFCVLWYSNHWVFGGGTKLTVL
notes: also called 27H3 (positive clone supernatant)

- OD450 (Mouse-TrKA protein): ~3.5 OD450
B9: mouse monoclonal antibody produced by hybridoma clone 21E5 (antibody, V domains shown)
VH: QVQLQQSGAELMKPGASMKISCKATGYTFSTYWIEWVKQRPGHGLEWIGENLPGRHITNYNEKFKGKATFTADTSSNTAYMQLSSLTSEDSAVYYCARGRGTYYFDYWGQGTPLTVSS
VL: DIVMTQAAFSTPVTLGTSASISCRSSQSLLHSNGITYLYWYLQKPGQSPQLLIYQMSNLASGVPDRFSSSGSGTDFTLRISRVEAEDVGVYYCAQNLEFPFTFGSGTKLEIK
notes: also called 21E5 (positive clone supernatant)

- EC50 [1]: < 1.5 µg/mL
- Kd [2]: 0.899 nM
- koff [2]: 0.000904 s⁻¹
- kon [2]: 1.01e+06 M⁻¹ s⁻¹
- IC50; p-TrkA level by AlphaLISA in NGF-stimulated NIH3T3-TrkA stable cell line [7]: 0.0473 µg/mL
- IC50 [3]: 0.334 µg/mL
- EC50 [4]: 0.0372 µg/mL
- OD450 [6]: ~3 OD450
B10: 1B9 chimeric antibody (antibody, human IgG4 S228P, kappa, F234A L235A, V domains shown)
VH: QVHLQQSGAELMKPGASVKISCKATGYTFNIYWIDWVKQRPGHGLEWIGEILPGSGNTHYNENFKGKATMTADTSSNTAYMQLTSLTSEDSAVYYCARTDGRGYFDYWGQGTTLTVSS
VL: DIVLTQSPASLVVSLGQRATISCRTSKSVSSSAYSYMHWYQQKPGQPPKVLIYLASNLESGVPARFSGSGSGTDFTLNIHPVEEEDAATYYCQHSRELPFTFGSGTKLEIKR
notes: expressed in CHO cells

- binding result (Mouse-TrKA protein): no binding
B11: mouse monoclonal antibody produced by hybridoma clone 1B9 (antibody, V domains shown)
VH: B10 VH
VL: DIVLTQSPASLVVSLGQRATISCRTSKSVSSSAYSYMHWYQQKPGQPPKVLIYLASNLESGVPARFSGSGSGTDFTLNIHPVEEEDAATYYCQHSRELPFTFGSGTKLEIK
notes: also called 1B9 (positive clone supernatant)

- OD450 (Mouse-TrKA protein): ~3.5 OD450
B12: mouse monoclonal antibody produced by hybridoma clone 23E12 (antibody, V domains shown)
VH: QVQLQQSGAELVRPGTSVKISCKASGYAFTNYWLGWMKQRPGHGLEWIGDFYPRTGNTFYNENFKGKVTLTADKSSNTAYMQLSSLTSEDSAVYLCARAGTGFDYWGQGTTLTVSS
VL: SIVMTQSPKSMSMSVGERVTLSCKASENVGGYVSWYQQKPDQSPKLLIYGASSRHTGVPDRFTGSGSETDFTLTISSVQAEDLAAYHCGQNYIYPFTFGGGTKLEIK
notes: also called 23E12 (positive clone supernatant)

- OD450 (Mouse-TrKA protein): ~3.5 OD450
B13: mouse monoclonal antibody produced by hybridoma clone 15D4 (antibody, V domains shown)
VH: QVQLQQSGAELMKPGASVKISCKATGYTFSSYWIEWVKQRPGHGLEWLGEFLPRSGKTNYNEEFRGKATFTADTSSNTAYMQLSSLTSEDSAVYYCARTDPPYFGVWGAGTMVAVSS
VL: B5 VL with D1Q, M4L, A9P, S28N, V29I, T79A, N93V, P95L, G99A, L105I
notes: also called 15D4 (positive clone supernatant)

- IC50; p-TrkA level by AlphaLISA in NGF-stimulated NIH3T3-TrkA stable cell line [7]: 0.16 µg/mL
B14: MNAC13 (anti-TrKA monoclonal antibody, positive control) (antibody, human IgG4 S228P, kappa, F234A L235A, V domains shown)
VH: EVQLLESGGGLVQPGGSLRLSCAASGFTFSTYTMSWARQAPGKGLEWVAYISKGGGSTYYPDTVKGRFTISRDNSKNTLYLQMNSLRAEDSAVYYCARGAMFGNDFFFPMDRWGQGTLVTVSS
VL: DIVLTQSPSSLSASVGDRVTITCSASSSVSYMHWYQQKPGQAPKLLIYTTSNLASGVPSRFSGSGSGTDYTLTISSLQPEDVATYYCHQWSSYPWTFGGGTKVEIKR
